Numbering of substitutions follows the chain as printed. Like-named read-outs stand apart in the source and are kept apart here. Each block holds one molecule with its values, some of them ahead of it.
Tests used:
[1] = target: Murine CD40L on cells (D10.G4 / D10G4.1 cells; activated murine T cells) (murine) (UniProt P27548); experiment: cell-based or functional assay
[2] = target: Murine MegaCD40L (Axxora, cat. ALX522120) (murine) (UniProt P27548); experiment: cell-based or functional assay
[3] = target: T1, Human CD40L, membrane form, on cells (Jurkat D1.1 cells; activated primary human T cells) (human, UniProt P29965 1-261); experiment: cell-based or functional assay
T1 sequence: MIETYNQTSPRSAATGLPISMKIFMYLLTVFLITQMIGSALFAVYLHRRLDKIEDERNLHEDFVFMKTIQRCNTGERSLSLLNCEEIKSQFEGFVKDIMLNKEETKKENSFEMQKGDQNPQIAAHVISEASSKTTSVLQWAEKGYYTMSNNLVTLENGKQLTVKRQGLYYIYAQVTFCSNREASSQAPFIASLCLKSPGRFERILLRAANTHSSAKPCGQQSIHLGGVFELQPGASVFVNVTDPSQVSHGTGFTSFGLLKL

[4] = target: Human CD40L, membrane form, on cells (Jurkat D1.1 cells; activated primary human T cells) (human) (UniProt P29965); experiment: cell-based or functional assay
[5] = target: T2, Recombinant human CD40L (Human MegaCD40L; Axxora) (human, UniProt P29965 47-261, biotinylated with EZ-Link sulfo-NHS-biotin where used in the plate binding assay); experiment: capture ELISA: His-tagged Tn3 captured on anti-His antibody, biotinylated Human MegaCD40L detected with SA-HRP
T2 construct: extracellular domain; Bought construct (Axxora ALX522110): two trimeric CD40 ligands linked via the ACRP30 collagen domain; also called biotinylated Human MegaCD40L; Mega human CD40L; not shown: FLAG tag and collagen domain of ACRP30/adiponectin that links two CD40L trimers
T2 sequence (looked up): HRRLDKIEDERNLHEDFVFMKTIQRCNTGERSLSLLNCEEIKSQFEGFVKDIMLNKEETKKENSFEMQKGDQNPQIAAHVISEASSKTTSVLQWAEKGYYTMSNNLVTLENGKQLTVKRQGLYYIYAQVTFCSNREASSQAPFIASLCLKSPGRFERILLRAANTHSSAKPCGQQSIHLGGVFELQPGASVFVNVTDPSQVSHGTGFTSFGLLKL

[6] = target: T3, Murine CD40L (form not stated) (murine, UniProt P27548 112-260, limits assumed); experiment: biosensor competition: inhibition of murine CD40L binding to immobilized murine CD40 receptor
T3 construct: also called MuCD40L
T3 sequence (looked up): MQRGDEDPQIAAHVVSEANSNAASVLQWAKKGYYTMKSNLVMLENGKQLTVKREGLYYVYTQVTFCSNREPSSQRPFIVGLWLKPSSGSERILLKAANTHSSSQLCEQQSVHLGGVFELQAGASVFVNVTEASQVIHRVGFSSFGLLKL

[7] = target: T3, Murine CD40L (form not stated); experiment: method not stated (figure legend)
[8] = target: Murine CD40L on cells (D10.G4 / D10G4.1 cells; activated murine T cells) (murine) (UniProt P27548); experiment: cell-based or functional assay; remark: listed apart in the source
[9] = target: Murine MegaCD40L (Axxora, cat. ALX522120) (murine) (UniProt P27548); experiment: cell-based or functional assay; remark: listed apart in the source
[10] = target: T2, Recombinant human CD40L (Human …); experiment: ProteOn XPR36 biosensor, human MegaCD40L immobilized on GLC chip, purified Tn3 as analyte
Method: Outputs were pool cloned into the soluble secretion vector as previously described, and five 96-well plates were screened for CD40L binding using the soluble protein screening assay described previously. Positive hits were identified relative to the signal obtained with the 311K4E backbone variant. […] PBS, 0.005% Tween20, 3 mM EDTA, pH7.4 was used as running buffer. Off-rates were ranked by visual inspection of the sensorgrams.

[11] = target: T1, Human CD40L, membrane form, on cells …; experiment: cell-based or functional assay; remark: listed apart in the source
[12] = target: T2, Recombinant human CD40L (Human …); experiment: ProteOn XPR36 biosensor, human MegaCD40L immobilized on GLC chip, Tn3 as analyte, equilibrium analysis, 25 C
Method: ProteOn phosphate buffered saline with 0.005% Tween 20, pH 7.4 (PBS/Tween) was used as running buffer. Human MegaCD40L was immobilized on the chip at a surface density of approximately 2300 RU. […] Samples of each concentration were injected into the six analyte channels at a flow rate of 30 μl/min. for 300 seconds. The Kd was determined by using the equilibrium analysis setting within the ProteOn software.

[13] = target: T2, Recombinant human CD40L (Human …); experiment: cell-based or functional assay

IC50, inhibition of CD86 up regulation on CD19+ B cells (PBMC stimulated with D10.G4 cells) [1]: 0.23 nM | IC50, inhibition of CD40L-induced NFκB activity [2]: 0.2 nM
Molecule: MR1 anti-murine CD40L monoclonal antibody

fold improvement over monovalent 311, inhibition of human CD40L-induced expression on CD19 positive human PBMCs [3]: ~7 fold
B1: 311-3GS bivalent tandem scaffold (designed binder)
chain: IEVKDVTDTTALITWTNRSSYYNLHGCELTYGIKDVPGDRTTIDLSSPYVHYSIGNLKPDTEYEVSLICLTTDGTYSNPAKETFTTGGGGSGGGGSGGGGSIEVKDVTDTTALITWTNRSSYYNLHGCELTYGIKDVPGDRTTIDLSSPYVHYSIGNLKPDTEYEVSLICLTTDGTYSNPAKETFTT

fold improvement over monovalent 311, inhibition of human CD40L-induced expression on CD19 positive human PBMCs [4]: 7 fold
B2: 311-7GS bivalent tandem scaffold (designed binder)
chain: IEVKDVTDTTALITWTNRSSYYNLHGCELTYGIKDVPGDRTTIDLSSPYVHYSIGNLKPDTEYEVSLICLTTDGTYSNPAKETFTTGGGGSGGGGSGGGGSGGGGSGGGGSGGGGSGGGGSIEVKDVTDTTALITWTNRSSYYNLHGCELTYGIKDVPGDRTTIDLSSPYVHYSIGNLKPDTEYEVSLICLTTDGTYSNPAKETFTT

binding result [5]: no binding
B3: 309 variant with the BC loop changed to the parent Tn3 BC loop sequence (designed binder)
chain: AIEVKDVTDTTALITWFKPLAEIDGCELTYGIKDVPGDRTTIDLWWHSAWYSIGNLKPDTEYEVSLICYTDQEAGNPAKETFTTGGGTLGHHHHHHHH

binding result [5]: no binding
B4: 309 variant with the DE loop changed to the parent Tn3 DE loop sequence (designed binder)
chain: AIEVKDVTDTTALITWSDEFGHYDGCELTYGIKDVPGDRTTIDLTEDENQYSIGNLKPDTEYEVSLICYTDQEAGNPAKETFTTGGGTLGHHHHHHHH

IC50 [6]: 71 nM
B5: Clone M13 (murine CD40L-specific Tn3 scaffold) (designed binder)
chain: IEVKDVTDTTALITWHDAFGYDFGCELTYGIKDVPGDRTTIDLPDHFHNYSIGNLKPDTEYEVSLICANDHGFDSNPAKETFTT
notes: also called monovalent M13

fold affinity improvement over M13 [7]: ~20 fold | IC50, inhibition of CD86 up regulation on CD19+ B cells (PBMC stimulated with D10.G4 cells) [8]: 1.5 nM | fold increase in potency in the PBMC assay over M13 [8]: 20 fold | IC50, neutralization of murine CD40L-induced NFκB activity (luciferase reporter cells) [9]: 1.6 nM
B6: Clone M31 (affinity optimized variant of M13, murine CD40L-specific) (designed binder)
chain: B5 chain with A18P, F19S, G24W, N76Y

Kd [10]: 1.6 nM
B7: Clone 311K4E_15 - Clone Variant from second round of affinity maturation (designed binder)
chain: AIEVEDVTDTTALITWTNRSSYANYHHCELTYGIKDVPGDRTTIDLELYVHYSIGNLKPDTEYEVSLICLTTDGTYSNPAKETFTTGGGTLGHHHHHHHH
notes: Secreted His8-tagged form

PBMC IC50 [11]: 760 nM
B8: Clone 309FGwt - Parental clone with 'humanized' FG loop (designed binder)
chain: AIEVKDVTDTTALITWSDEFGHYDGCELTYGIKDVPGDRTTIDLWWHSAWYSIGNLKPDTEYEVSLICRRGDMSSNPAKETFTTGGGTLGHHHHHHHH

PBMC IC50 [11]: 37.3 nM | Kd [12]: 39 nM
B9: Clone 345 - Affinity Mature variant (designed binder)
chain: B8 chain with E19D, G21A, H22E, D24V
notes: Secreted His8-tagged form

PBMC IC50 [11]: 1.3 nM
B10: Clone 344 - Affinity Mature variant (designed binder)
chain: B8 chain with F20V, H22D, D24V, G25V, W46Y, S48M

PBMC IC50 [11]: 0.6 nM | Kd [12]: 2 nM
B11: Clone 343 - Affinity Mature variant (designed binder)
chain: B8 chain with S17L, E19D, F20W, H22S, D24H, G25V, W46Y, S48Q
notes: Secreted His8-tagged form

PBMC IC50 [11]: 1 nM | Kd [12]: 1.8 nM
B12: Clone 348 - Affinity Mature variant (designed binder)
chain: B8 chain with E19D, F20I, H22L, D24V, G25W, W46F, S48Q
notes: Secreted His8-tagged form

PBMC IC50 [11]: 38.2 nM | Kd [12]: 21 nM
B13: Clone 349 - Affinity Mature variant (designed binder)
chain: B8 chain with F20H, G21A, H22E, Y23F, D24I
notes: Secreted His8-tagged form

PBMC IC50 [11]: 0.7 nM | Kd [12]: 2.2 nM
B14: Clone 340 - Affinity Mature variant (designed binder)
chain: B8 chain with E19D, G21D, H22N, D24E, G25W, W46Y, S48M
notes: Secreted His8-tagged form

PBMC IC50 [11]: 0.7 nM
B15: Clone 341 - Affinity Mature variant (designed binder)
chain: B8 chain with E19D, G21A, H22D, D24V, G25W

PBMC IC50 [11]: 9 nM | Kd [12]: 14.9 nM
B16: Clone 346 - Affinity Mature variant (designed binder)
chain: B8 chain with E19D, G21E, H22E, D24V, G25V
notes: Secreted His8-tagged form

PBMC IC50 [11]: 226 nM | Kd [12]: 191 nM
B17: Clone 309 - Parental clone isolated from naive Tn3 library (designed binder)
chain: B4 chain with T45W, E46W, D47H, E48S, N49A, Q50W
notes: Secreted His8-tagged form purified on Ni-NTA

IC50, inhibition of human CD40L-induced NFκB activity (luciferase reporter HEK293 cells) [13]: 1.5 nM | PBMC IC50 [11]: 0.7 nM | Kd [12]: 1.4 nM
B18: Clone 342 - Affinity Mature variant (w/WT FG loop) (designed binder)
chain: B8 chain with E19D, H22E, D24V, G25W, W46Y, S48H, W50H
notes: Secreted His8-tagged form

PBMC IC50 [11]: 11 nM | Kd [12]: 10.7 nM
B19: Clone 347 - Affinity Mature variant (designed binder)
chain: B8 chain with F20V, H22Q, D24V, W46Y, S48M
notes: Secreted His8-tagged form

binding result [5]: no binding
B20: 311 variant with the BC loop changed to the parent Tn3 BC loop sequence (designed binder)
chain: AIEVKDVTDTTALITWFKPLAEIDGCELTYGIKDVPGDRTTIDLSSPYVHYSIGNLKPDTEYEVSLICLTTDGTYSNPAKETFTTGGGTLGHHHHHHHH

binding result [5]: no binding
B21: 311 variant with the DE loop changed to the parent Tn3 DE loop sequence (designed binder)
chain: AIEVKDVTDTTALITWTNRSSYYNLHGCELTYGIKDVPGDRTTIDLTEDENQYSIGNLKPDTEYEVSLICLTTDGTYSNPAKETFTTGGGTLGHHHHHHHH

Kd [10]: 18 nM | fold increase in potency over 311 in the PBMC assay [3]: ~100 fold
B22: Clone 311K4E - Variant from first round of affinity maturation (designed binder)
chain: B21 chain with K5E, T47S, E48S, D49P, E50Y, N51V, Q52H
notes: Secreted His8-tagged form

Kd [10]: 6.3 nM
B23: Clone 311K4E_11 - Clone Variant from second round of affinity maturation (designed binder)
chain: B21 chain with K5E, Y23A, H26P, T47N, E48S, D49P, E50Y, N51V, Q52H
notes: Secreted His8-tagged form

Kd [10]: 1.1 nM | fold increase in potency in the PBMC assay relative to 311K4E [3]: 12 fold
B24: Clone 311K4E_12 - Clone Variant from second round of affinity maturation (designed binder)
chain: B21 chain with K5E, Y23S, T31A, T47N, E48Q, D49P, E50Y, N51V, Q52H, S78N
notes: Secreted His8-tagged form

Kd [10]: 6.4 nM
B25: Clone 311K4E_3 - Clone Variant from second round of affinity maturation (designed binder)
chain: AIEVEDVTDTTALITWINRSSYHNFPHCELAYGIKDVPGDRTTIDLNSPYVHYSIGNLKPDTEYEVSLICLTTDGTYSNPAKETFTTGGGTLGHHHHHHHH
notes: Secreted His8-tagged form

Reference: patent US20150098955A1 (VIELA BIO, published 2015)
